Measurements taken from article PMC8512704, “A Uniform Benchmark for Testing SsrA-Derived Degrons in the Escherichia coli ClpXP Degradation Pathway” (Molecules, 2021).
No end group written: not given here.

T1: SspB (Escherichia coli, UniProt P0AFZ3 1-165)
T1 chain: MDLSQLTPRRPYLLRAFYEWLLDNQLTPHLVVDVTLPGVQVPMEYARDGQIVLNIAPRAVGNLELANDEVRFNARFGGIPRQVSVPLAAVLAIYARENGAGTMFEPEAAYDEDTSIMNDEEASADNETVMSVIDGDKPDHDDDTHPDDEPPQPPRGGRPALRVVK

B1: eGFP-AANDENY (peptide)
chain: eGFP-AANDENY
notes: AANDENY motif of the E. coli ssrA tag, appended to the C-terminus of eGFP; Degron fused to the C-terminus of His-TEV-eGFP; source: E. coli ΔclpP Keio strain (JW0427) (earlier Top10), pBAD, purified (HisTrap and Superdex200 in tandem); not shown: His-TEV, N-terminal, kept; eGFP, N-terminal, kept
B2: eGFP-AANDENYADAS (peptide)
chain: eGFP-AANDENYADAS
notes: ssrA tag variant with the C-terminal ALAA replaced by ADAS, appended to the C-terminus of eGFP; Degron fused to the C-terminus of His-TEV-eGFP; source: E. coli ΔclpP Keio strain (JW0427) (earlier Top10), pBAD, purified (HisTrap and Superdex200 in tandem); not shown: His-TEV, N-terminal, kept; eGFP, N-terminal, kept
B3: eGFP-AANDENYAANDENY (peptide)
chain: eGFP-AANDENYAANDENY
notes: two repeats of the AANDENY motif of the ssrA tag, appended to the C-terminus of eGFP; Degron fused to the C-terminus of His-TEV-eGFP; source: E. coli ΔclpP Keio strain (JW0427) (earlier Top10), pBAD, purified (HisTrap and Superdex200 in tandem); not shown: His-TEV, N-terminal, kept; eGFP, N-terminal, kept
B4: eGFP-AANDENYSENYALAA (peptide)
chain: eGFP-AANDENYSENYALAA
notes: ssrA tag variant with the SENY linker between AANDENY and ALAA, appended to the C-terminus of eGFP; Degron fused to the C-terminus of His-TEV-eGFP; source: E. coli ΔclpP Keio strain (JW0427) (earlier Top10), pBAD, purified (HisTrap and Superdex200 in tandem); not shown: His-TEV, N-terminal, kept; eGFP, N-terminal, kept
B5: eGFP-AANDENYSENY (peptide)
chain: eGFP-AANDENYSENY
notes: AANDENY motif of the ssrA tag followed by the SENY linker, appended to the C-terminus of eGFP; Degron fused to the C-terminus of His-TEV-eGFP; source: E. coli ΔclpP Keio strain (JW0427) (earlier Top10), pBAD, purified (HisTrap and Superdex200 in tandem); not shown: His-TEV, N-terminal, kept; eGFP, N-terminal, kept
B6: eGFP-AANDENYSENYADAS (peptide)
chain: eGFP-AANDENYSENYADAS
notes: ssrA tag variant with the SENY linker and the C-terminal ALAA replaced by ADAS, appended to the C-terminus of eGFP; Degron fused to the C-terminus of His-TEV-eGFP; source: E. coli ΔclpP Keio strain (JW0427) (earlier Top10), pBAD, purified (HisTrap and Superdex200 in tandem); not shown: His-TEV, N-terminal, kept; eGFP, N-terminal, kept
B7: eGFP-AANDENYALAA (peptide)
chain: eGFP-AANDENYALAA
notes: ssrA tag of Escherichia coli, the 11 amino acids added by trans-translation (tmRNA), appended to the C-terminus of eGFP; Degron fused to the C-terminus of His-TEV-eGFP; also called eGFP-ssrA; eGFP-SsrA; source: E. coli ΔclpP Keio strain (JW0427) (earlier Top10), pBAD, purified (HisTrap and Superdex200 in tandem); not shown: His-TEV, N-terminal, kept; eGFP, N-terminal, kept
B8: SspB (natural protein, Escherichia coli, UniProt P0AFZ3 1-165, looked up)
chain: MDLSQLTPRRPYLLRAFYEWLLDNQLTPHLVVDVTLPGVQVPMEYARDGQIVLNIAPRAVGNLELANDEVRFNARFGGIPRQVSVPLAAVLAIYARENGAGTMFEPEAAYDEDTSIMNDEEASADNETVMSVIDGDKPDHDDDTHPDDEPPQPPRGGRPALRVVK

Experiments:
[1] = biological target: T1, SspB; assay: MST
[2] = biological target: T1, SspB; assay: MST
[3] = biological target: B8; assay: MST; 50 nM eGFP-degron (eGFP fluorescence), SspB titrated 3.72 nM to 122 μM; 25 mM Hepes pH 7.6, 200 mM KCl, 5 mM MgCl2, 10% glycerol, 0.05% Tween 20; 15 min at RT; measured at 20 °C, Monolith NT.115; settings: both partners purified
[4] = biological target: ClpX (Escherichia coli, UniProt P0A6H1 1-424); assay: cell-based or functional assay
Chain of ClpX (P0A6H1 whole entry): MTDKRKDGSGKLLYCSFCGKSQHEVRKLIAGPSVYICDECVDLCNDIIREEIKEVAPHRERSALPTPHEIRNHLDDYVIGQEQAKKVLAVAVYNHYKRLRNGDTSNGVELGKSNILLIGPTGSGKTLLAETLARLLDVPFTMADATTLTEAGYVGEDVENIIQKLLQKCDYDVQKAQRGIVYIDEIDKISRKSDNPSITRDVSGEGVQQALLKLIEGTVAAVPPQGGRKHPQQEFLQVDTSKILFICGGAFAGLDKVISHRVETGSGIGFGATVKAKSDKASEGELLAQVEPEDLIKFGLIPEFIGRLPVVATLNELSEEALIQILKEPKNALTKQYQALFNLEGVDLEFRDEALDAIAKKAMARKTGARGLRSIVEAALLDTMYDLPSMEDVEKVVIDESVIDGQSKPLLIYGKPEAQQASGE

Binder | Ka [1] [M⁻¹] | Kd [2] [nM] | binding result [3] | Kd [3] [nM] | ClpX ATPase activity (NADH-coupled assay, 0.08 µM ClpX6, 30 °C) with increasing SspB2 (0-27.4 μM): increase of reaction velocity [4] [fold]
B1 | 1.08e+07 | 110 | binds | – | –
B2 | 3.02e+06 | – | – | 330 | –
B3 | 9.56e+06 | 120 | binds | – | –
B4 | 7.8e+06 | 140 | binds | – | –
B5 | 9.78e+06 | – | – | 100 | –
B6 | 3.37e+06 | – | – | 300 | –
B7 | 1.32e+07 | – | – | 80 | –
B8 | – | – | – | – | ~2
